Measured values published in patent US20240209106A1 (BEIGENE SWITZERLAND, published 2024).

Columns and labels:
[1] = molecular target: human CD137 ECD-mIgG2a (human); experiment: SPR, multispecific antibody captured on anti-human IgG Fc chip, human CD137 ECD-mIgG2a flowed over
Protocol: Briefly, anti-human IgG (Fc) antibody was immobilized on an activated CM5 biosensor chip (Cat.: BR100839, GE Life Sciences). Anti-huCD137 monoclonal antibodies or multispecific antibodies were flown through the chip surface and captured by anti-human IgG (Fc) antibody. […] The equilibrium dissociation constant (KD)) was calculated as the ratio koff/kₒₙ.

[2] = molecular target: full-length human CD137 (huCD137) (human, UniProt Q07011 24-255); experiment: cell-based or functional assay
full-length human CD137 (huCD137), sequence (Q07011 24-255 limits assumed): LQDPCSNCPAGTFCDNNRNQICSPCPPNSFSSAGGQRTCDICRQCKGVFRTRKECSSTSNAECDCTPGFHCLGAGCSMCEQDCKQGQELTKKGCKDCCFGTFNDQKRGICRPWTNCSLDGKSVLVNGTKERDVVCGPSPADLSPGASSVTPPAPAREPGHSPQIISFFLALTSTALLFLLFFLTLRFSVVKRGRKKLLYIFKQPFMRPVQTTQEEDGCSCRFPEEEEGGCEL

human CD137 ECD-mIgG2a (human), sequence (chain, as listed by the source limits assumed): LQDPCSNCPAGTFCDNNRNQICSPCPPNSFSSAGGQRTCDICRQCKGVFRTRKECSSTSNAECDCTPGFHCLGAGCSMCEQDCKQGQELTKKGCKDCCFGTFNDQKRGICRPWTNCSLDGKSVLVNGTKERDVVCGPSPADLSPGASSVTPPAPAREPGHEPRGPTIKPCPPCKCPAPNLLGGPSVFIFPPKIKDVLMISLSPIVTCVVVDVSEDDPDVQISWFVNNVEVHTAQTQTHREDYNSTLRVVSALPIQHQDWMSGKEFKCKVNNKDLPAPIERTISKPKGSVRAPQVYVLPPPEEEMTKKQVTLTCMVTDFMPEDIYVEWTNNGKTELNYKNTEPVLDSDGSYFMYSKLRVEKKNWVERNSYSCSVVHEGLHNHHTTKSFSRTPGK

B1: Format A - BGA-3285 (bispecific antibody, human IgG1, kappa)
heavy: QVQLVQSGAEVKKPGASVKVSCKASGYIFTSYYLHWVRQAPGQGLEWIGYINPQTGKTSYAQKFQGRVTMTRDTSTSTVYMELSSLRSEDTAVYYCAREYGNYNYPLDYWGQGTLVTVSSASTKGPSVFPLAPSSKSTSGGTAALGCLVKDYFPEPVTVSWNSGALTSGVHTFPAVLQSSGLYSLSSVVTVPSSSLGTQTYICNVNHKPSNTKVDKKVEPKSCDKTHTCPPCPAPPAAGPSVFLFPPKPKDTLMISRTPEVTCVVVDVSHEDPEVKFNWYVDGVEVHNAKTKPREEQYNSTYRVVSVLTVLHQDWLNGKEYKCKVSNKALAAPIEKTISKAKGQPREPQVYTLPPSREEMTKNQVSLTCLVKGFYPSDIAVEWESNGQPENNYKTTPPVLDSDGSFFLYSKLTVDKSRWQQGNVFSCSVMHEALHNHYTQKSLSLSPGKGGGGSEVQLLESGGGLVQPGGSLRLSCAASGFTISAEDVGWVRQAPGKGLEWVSAILDFGGSTYYAESVKGRFTISRDNAKNTLYLQMSSLRAEDTAVYYCARVVYHAGGGVTFDTRGQGTQVTVSS
light: DIQMTQSPSSLSASVGDRVTITCRASENQYGYLAWYQQKPGKVPKLLIYNYKNLVEGVPSRFSGSGSGTDFTLTISSLQPEDVATYYCQHHLGTPYTFGQGTKVEIKRTVAAPSVFIFPPSDEQLKSGTASVVCLLNNFYPREAKVQWKVDNALQSGNSQESVTEQDSKDSTYSLSSTLTLSKADYEKHKVYACEVTHQGLSSPVTKSFNRGEC
notes: Light chain by the description of Format A
Kd [1]: 798 nM

B2: BE-718 (A-BGA-5623-BGA-5623) (bispecific antibody, human IgG1, kappa)
heavy: QVQLVQSGAEVKKPGASVKVSCKASGYIFTSYYLHWVRQAPGQGLEWIGYINPQTGKTSYAQKFQGRVTMTRDTSTSTVYMELSSLRSEDTAVYYCAREYGNYNYPLDYWGQGTLVTVSSASTKGPSVFPLAPSSKSTSGGTAALGCLVKDYFPEPVTVSWNSGALTSGVHTFPAVLQSSGLYSLSSVVTVPSSSLGTQTYICNVNHKPSNTKVDKKVEPKSCDKTHTCPPCPAPPAAGPSVFLFPPKPKDTLMISRTPEVTCVVVDVSHEDPEVKFNWYVDGVEVHNAKTKPREEQYNSTYRVVSVLTVLHQDWLNGKEYKCKVSNKALAAPIEKTISKAKGQPREPQVYTLPPSREEMTKNQVSLTCLVKGFYPSDIAVEWESNGQPENNYKTTPPVLDSDGSFFLYSKLTVDKSRWQQGNVFSCSVMHEALHNHYTQKSLSLSPGKGGGGSEVQLLESGGGLVQPGGSLRLSCAASGFTVSAEDVGWVRQAPGKGLEWVSAILDKGGSTYYAESVKGRFTISRDNAKNTLYLQMSSLRAEDTAVYYCARIVYHAGGGVTFDTRGQGTQVTVSSGGGGSEVQLLESGGGLVQPGGSLRLSCAASGFTVSAEDVGWVRQAPGKGLEWVSAILDKGGSTYYAESVKGRFTISRDNAKNTLYLQMSSLRAEDTAVYYCARIVYHAGGGVTFDTRGQGTQVTVSS
light: DIQMTQSPSSLSASVGDRVTITCRASENQYGYLAWYQQKPGKVPKLLIYNYKNLVEGVPSRFSGSGSGTDFTLTISSLQPEDVATYYCQHHLGTPYTFGQGTKVEIKRTVAAPSVFIFPPSDEQLKSGTASVVCLLNNFYPREAKVQWKVDNALQSGNSQESVTEQDSKDSTYSLSSTLTLSKADYEKHKVYACEVTHQGLSSPVTKSFNRGEC
Functional assay EC50 (ug/ml), in vitro CD137 activation (PBMC cytokine release) [2]: 0.01 µg/mL

B3: BE-740 (A-IgG1-BGA-5623) (bispecific antibody)
heavy: not shown
light: DIQMTQSPSSLSASVGDRVTITCRASENQYGYLAWYQQKPGKVPKLLIYNYKNLVEGVPSRFSGSGSGTDFTLTISSLQPEDVATYYCQHHLGTPYTFGQGTKVEIKRTVAAPSVFIFPPSDEQLKSGTASVVCLLNNFYPREAKVQWKVDNALQSGNSQESVTEQDSKDSTYSLSSTLTLSKADYEKHKVYACEVTHQGLSSPVTKSFNRGEC
Functional assay EC50 (ug/ml), in vitro CD137 activation (PBMC cytokine release) [2]: 0.17 µg/mL

B4: Format A - BGA-8425 (bispecific antibody, human IgG1, kappa)
heavy: QVQLVQSGAEVKKPGASVKVSCKASGYIFTSYYLHWVRQAPGQGLEWIGYINPQTGKTSYAQKFQGRVTMTRDTSTSTVYMELSSLRSEDTAVYYCAREYGNYNYPLDYWGQGTLVTVSSASTKGPSVFPLAPSSKSTSGGTAALGCLVKDYFPEPVTVSWNSGALTSGVHTFPAVLQSSGLYSLSSVVTVPSSSLGTQTYICNVNHKPSNTKVDKKVEPKSCDKTHTCPPCPAPPAAGPSVFLFPPKPKDTLMISRTPEVTCVVVDVSHEDPEVKFNWYVDGVEVHNAKTKPREEQYNSTYRVVSVLTVLHQDWLNGKEYKCKVSNKALAAPIEKTISKAKGQPREPQVYTLPPSREEMTKNQVSLTCLVKGFYPSDIAVEWESNGQPENNYKTTPPVLDSDGSFFLYSKLTVDKSRWQQGNVFSCSVMHEALHNHYTQKSLSLSPGKGGGGSEVQLLESGGGLVQPGGSLRLSCAASGFTLSAEDVGWVRQAPGKGLEWVSAILDSGGSTYYAESVKGRFTISRDNAKNTLYLQMSSLRAEDTAVYYCARVVYHAGGGVTYDYRGQGTQVTVSS
light: DIQMTQSPSSLSASVGDRVTITCRASENQYGYLAWYQQKPGKVPKLLIYNYKNLVEGVPSRFSGSGSGTDFTLTISSLQPEDVATYYCQHHLGTPYTFGQGTKVEIKRTVAAPSVFIFPPSDEQLKSGTASVVCLLNNFYPREAKVQWKVDNALQSGNSQESVTEQDSKDSTYSLSSTLTLSKADYEKHKVYACEVTHQGLSSPVTKSFNRGEC
notes: as for B1
Kd [1]: 189 nM

B5: Format A - BGA-3953 (bispecific antibody, human IgG1, kappa)
heavy: QVQLVQSGAEVKKPGASVKVSCKASGYIFTSYYLHWVRQAPGQGLEWIGYINPQTGKTSYAQKFQGRVTMTRDTSTSTVYMELSSLRSEDTAVYYCAREYGNYNYPLDYWGQGTLVTVSSASTKGPSVFPLAPSSKSTSGGTAALGCLVKDYFPEPVTVSWNSGALTSGVHTFPAVLQSSGLYSLSSVVTVPSSSLGTQTYICNVNHKPSNTKVDKKVEPKSCDKTHTCPPCPAPPAAGPSVFLFPPKPKDTLMISRTPEVTCVVVDVSHEDPEVKFNWYVDGVEVHNAKTKPREEQYNSTYRVVSVLTVLHQDWLNGKEYKCKVSNKALAAPIEKTISKAKGQPREPQVYTLPPSREEMTKNQVSLTCLVKGFYPSDIAVEWESNGQPENNYKTTPPVLDSDGSFFLYSKLTVDKSRWQQGNVFSCSVMHEALHNHYTQKSLSLSPGKGGGGSEVQLLESGGGLVQPGGSLRLSCAASGFTVSAEDVGWVRQAPGKGLEWVSAILDSGGSTYYAESVKGRFTISRDNAKNTLYLQMSSLRAEDTAVYYCARIVYHAGGGVTFDTRGQGTQVTVSS
light: DIQMTQSPSSLSASVGDRVTITCRASENQYGYLAWYQQKPGKVPKLLIYNYKNLVEGVPSRFSGSGSGTDFTLTISSLQPEDVATYYCQHHLGTPYTFGQGTKVEIKRTVAAPSVFIFPPSDEQLKSGTASVVCLLNNFYPREAKVQWKVDNALQSGNSQESVTEQDSKDSTYSLSSTLTLSKADYEKHKVYACEVTHQGLSSPVTKSFNRGEC
notes: as for B1
Kd [1]: 115 nM

B6: Format A - BGA-7746 (bispecific antibody, human IgG1, kappa)
heavy: QVQLVQSGAEVKKPGASVKVSCKASGYIFTSYYLHWVRQAPGQGLEWIGYINPQTGKTSYAQKFQGRVTMTRDTSTSTVYMELSSLRSEDTAVYYCAREYGNYNYPLDYWGQGTLVTVSSASTKGPSVFPLAPSSKSTSGGTAALGCLVKDYFPEPVTVSWNSGALTSGVHTFPAVLQSSGLYSLSSVVTVPSSSLGTQTYICNVNHKPSNTKVDKKVEPKSCDKTHTCPPCPAPPAAGPSVFLFPPKPKDTLMISRTPEVTCVVVDVSHEDPEVKFNWYVDGVEVHNAKTKPREEQYNSTYRVVSVLTVLHQDWLNGKEYKCKVSNKALAAPIEKTISKAKGQPREPQVYTLPPSREEMTKNQVSLTCLVKGFYPSDIAVEWESNGQPENNYKTTPPVLDSDGSFFLYSKLTVDKSRWQQGNVFSCSVMHEALHNHYTQKSLSLSPGKGGGGSEVQLLESGGGLVQPGGSLRLSCAASGFTVSAEDVGWVRQAPGKGLEWVSAILDFGGSTYYAESVKGRFTISRDNAKNTLYLQMSSLRAEDTAVYYCARVVYHAGGGVTFDTRGQGTQVTVSS
light: DIQMTQSPSSLSASVGDRVTITCRASENQYGYLAWYQQKPGKVPKLLIYNYKNLVEGVPSRFSGSGSGTDFTLTISSLQPEDVATYYCQHHLGTPYTFGQGTKVEIKRTVAAPSVFIFPPSDEQLKSGTASVVCLLNNFYPREAKVQWKVDNALQSGNSQESVTEQDSKDSTYSLSSTLTLSKADYEKHKVYACEVTHQGLSSPVTKSFNRGEC
notes: as for B1
Kd [1]: 245 nM

B7: Format A - BGA-5385 (bispecific antibody, human IgG1, kappa)
heavy: QVQLVQSGAEVKKPGASVKVSCKASGYIFTSYYLHWVRQAPGQGLEWIGYINPQTGKTSYAQKFQGRVTMTRDTSTSTVYMELSSLRSEDTAVYYCAREYGNYNYPLDYWGQGTLVTVSSASTKGPSVFPLAPSSKSTSGGTAALGCLVKDYFPEPVTVSWNSGALTSGVHTFPAVLQSSGLYSLSSVVTVPSSSLGTQTYICNVNHKPSNTKVDKKVEPKSCDKTHTCPPCPAPPAAGPSVFLFPPKPKDTLMISRTPEVTCVVVDVSHEDPEVKFNWYVDGVEVHNAKTKPREEQYNSTYRVVSVLTVLHQDWLNGKEYKCKVSNKALAAPIEKTISKAKGQPREPQVYTLPPSREEMTKNQVSLTCLVKGFYPSDIAVEWESNGQPENNYKTTPPVLDSDGSFFLYSKLTVDKSRWQQGNVFSCSVMHEALHNHYTQKSLSLSPGKGGGGSEVQLLESGGGLVQPGGSLRLSCAASGFTLSAEDVGWVRQAPGKGLEWVSAILDHGGSTYYAESVKGRFTISRDNAKNTLYLQMSSLRAEDTAVYYCARVIYHAGGGVTFDTRGQGTQVTVSS
light: DIQMTQSPSSLSASVGDRVTITCRASENQYGYLAWYQQKPGKVPKLLIYNYKNLVEGVPSRFSGSGSGTDFTLTISSLQPEDVATYYCQHHLGTPYTFGQGTKVEIKRTVAAPSVFIFPPSDEQLKSGTASVVCLLNNFYPREAKVQWKVDNALQSGNSQESVTEQDSKDSTYSLSSTLTLSKADYEKHKVYACEVTHQGLSSPVTKSFNRGEC
notes: as for B1
Kd [1]: 154 nM

B8: Format A - BGA-9468 (bispecific antibody, human IgG1, kappa)
heavy: QVQLVQSGAEVKKPGASVKVSCKASGYIFTSYYLHWVRQAPGQGLEWIGYINPQTGKTSYAQKFQGRVTMTRDTSTSTVYMELSSLRSEDTAVYYCAREYGNYNYPLDYWGQGTLVTVSSASTKGPSVFPLAPSSKSTSGGTAALGCLVKDYFPEPVTVSWNSGALTSGVHTFPAVLQSSGLYSLSSVVTVPSSSLGTQTYICNVNHKPSNTKVDKKVEPKSCDKTHTCPPCPAPPAAGPSVFLFPPKPKDTLMISRTPEVTCVVVDVSHEDPEVKFNWYVDGVEVHNAKTKPREEQYNSTYRVVSVLTVLHQDWLNGKEYKCKVSNKALAAPIEKTISKAKGQPREPQVYTLPPSREEMTKNQVSLTCLVKGFYPSDIAVEWESNGQPENNYKTTPPVLDSDGSFFLYSKLTVDKSRWQQGNVFSCSVMHEALHNHYTQKSLSLSPGKGGGGSEVQLLESGGGLVQPGGSLRLSCAASGFTVSAEDVGWVRQAPGKGLEWVSAILDSGGSTYYAESVKGRFTISRDNAKNTLYLQMSSLRAEDTAVYYCARVVYHSGGGVTFDLRGQGTQVTVSS
light: DIQMTQSPSSLSASVGDRVTITCRASENQYGYLAWYQQKPGKVPKLLIYNYKNLVEGVPSRFSGSGSGTDFTLTISSLQPEDVATYYCQHHLGTPYTFGQGTKVEIKRTVAAPSVFIFPPSDEQLKSGTASVVCLLNNFYPREAKVQWKVDNALQSGNSQESVTEQDSKDSTYSLSSTLTLSKADYEKHKVYACEVTHQGLSSPVTKSFNRGEC
notes: as for B1
Kd [1]: 873 nM
